Experimental data taken from patent publication US20160194391A1 (AstraZeneca / MedImmune, published 2016).

Tests used:
3×FLAG-IL-6 [1] = molecular target: T1, 3×FLAG-IL-6 (human); experiment: SPR, 3×FLAG-IL-6 captured by anti-FLAG M2 on protein G, scFv as analyte (1-100 nM)
T1 construct: it may hold the pre-pro-trypsin leader
Method: Equilibrium constants for scFvs were determined as previously described; however, the protocol was modified so that an epitope tagged IL-6 was captured on the chip surface and the dissociation of anti-IL-6 scFvs from IL-6 was monitored. Briefly, anti-FLAG® M2 antibody (200472, Agilent Technologies, Santa Clara, Calif.) was bound to Protein G, and then 3×FLAG-IL-6 was captured by the anti-FLAG antibody. The anti-IL-6 scFvs were assayed over a range of concentrations between 1 and 100 nM.
Anti IL-6 scFvs, humanized using the one step method, retained IL-6 neutralization activity when expressed in mammalian cells, as shown for 13A8 (FIG. 11A and FIG. 11B), 28D2 and 9C8 v3-1 (FIG. 11C).

human IL-6 [2] = molecular target: T2, human IL-6 (human, UniProt P05231 30-212); experiment: cell-based or functional assay
human IL-6 [3] = molecular target: T2, human IL-6; experiment: cell-based or functional assay; remark: listed apart in the source
human IL-6 [4] = molecular target: T2, human IL-6; experiment: cell-based or functional assay; remark: listed apart in the source
3×FLAG-IL-6 [5] = molecular target: T1, 3×FLAG-IL-6; experiment: SPR, 3×FLAG-IL-6 captured by anti-FLAG M2 on protein G, scFv as analyte (1-100 nM); remark: listed apart in the source
3×FLAG-IL-6 [6] = molecular target: T1, 3×FLAG-IL-6; experiment: SPR, 3×FLAG-IL-6 captured by anti-FLAG M2 on protein G, scFv as analyte

T1 sequence (chain, as listed by the source limits assumed): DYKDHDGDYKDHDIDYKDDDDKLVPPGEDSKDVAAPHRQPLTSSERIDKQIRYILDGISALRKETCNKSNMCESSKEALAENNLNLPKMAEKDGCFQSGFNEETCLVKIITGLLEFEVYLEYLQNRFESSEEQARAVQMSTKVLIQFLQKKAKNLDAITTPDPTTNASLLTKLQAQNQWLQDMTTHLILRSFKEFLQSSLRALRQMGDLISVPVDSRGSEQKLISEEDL

Binder | Kd (3×FLAG-IL-6 [1]) [nM] | koff (3×FLAG-IL-6 [1]) [s⁻¹] | kon (3×FLAG-IL-6 [1]) [M⁻¹ s⁻¹] | EC50, inhibition of IL-6 induced B9 cell proliferation (human IL-6 [2]) [ng/mL] | EC50 (pg/mL) of the folded scFv-PEG (human IL-6 [4]) [pg/mL] | Kd (3×FLAG-IL-6 [5]) [nM] | koff (3×FLAG-IL-6 [5]) [s⁻¹] | kon (3×FLAG-IL-6 [5]) [M⁻¹ s⁻¹] | further results
13A8 humanized scFv (mammalian expressed) (scFv, also called humanized scFv 13A8; mammalian 13A8 scFv) scFv: DIQLTQSPSFLSASVGDRVTITCQASQSISNELSWYQQKPGKAPKLLIYRASTLTSGVPSRFSGSGSGTEFTLTISSLQPEDFATYYCQQGYNSNDVDNVFGGGTKVEIKGGGGSGGGGSGGGGSGGGGSEVQLVESGGGLVQPGGSLRLSCTVSGIDLSSYDMSWVRQAPGKGLEWVGYIYTDSSTWYANWAKGRFTISRDNSKNTLYLQMNSLRAEDTAVYYCARGSTDYAFDTRLDLWGQGTLVTVSSGPPPPHHHHHH | 0.0982 | 8.64e-05 | 876000 | 0.064 |  |  |  |  | EC50, neutralization of IL-6 (human IL-6 [3]): 0.059 ng/mL
13A8c-PEG20 (scFv, C-terminal azidohomoalanine (Aha) conjugated to 20 kDa linear PEG bis-alkyne) scFv: DIQLTQSPSFLSASVGDRVTITCQASQSISNELSWYQQKPGKAPKLLIYRASTLTSGVPSRFSGSGSGTEFTLTISSLQPEDFATYYCQQGYNSNDVDNVFGGGTKVEIKGGGGSGGGGSGGGGSGGGGSEVQLVESGGGLVQPGGSLRLSCTVSGIDLSSYDLSWVRQAPGKGLEWVGYIYTDSSTWYANWAKGRFTISRDNSKNTLYLQLNSLRAEDTAVYYCARGSTDYAFDTRLDLWGQGTLVTVSS |  |  |  |  | 93 |  |  |  | 
13A8n-PEG20 (scFv, N-terminal azidohomoalanine (Aha) conjugated to 20 kDa linear PEG bis-alkyne) scFv: DIQLTQSPSFLSASVGDRVTITCQASQSISNELSWYQQKPGKAPKLLIYRASTLTSGVPSRFSGSGSGTEFTLTISSLQPEDFATYYCQQGYNSNDVDNVFGGGTKVEIKGGGGSGGGGSGGGGSGGGGSEVQLVESGGGLVQPGGSLRLSCTVSGIDLSSYDLSWVRQAPGKGLEWVGYIYTDSSTWYANWAKGRFTISRDNSKNTLYLQLNSLRAEDTAVYYCARGSTDYAFDTRLDLWGQGTLVTVSS |  |  |  |  | 1980 |  |  |  | 
13A8L-PEG20 (scFv, azidohomoalanine (Aha) in the linker (13A8L) conjugated to 20 kDa linear PEG bis-alkyne) scFv: DIQLTQSPSFLSASVGDRVTITCQASQSISNELSWYQQKPGKAPKLLIYRASTLTSGVPSRFSGSGSGTEFTLTISSLQPEDFATYYCQQGYNSNDVDNVFGGGTKVEIKGGGGSGGGGSGGGGSGGGGSEVQLVESGGGLVQPGGSLRLSCTVSGIDLSSYDLSWVRQAPGKGLEWVGYIYTDSSTWYANWAKGRFTISRDNSKNTLYLQLNSLRAEDTAVYYCARGSTDYAFDTRLDLWGQGTLVTVSS |  |  |  |  | 278 |  |  |  | 
28D2 humanized scFv (mammalian expressed) (scFv, also called 28D2 scFv) scFv: DIQLTQSPSFLSASVGDRVTITCQASEDLFSSLAWYQQKPGKAPKLLIYSASTLASGVPSRFSGSGSGTDFTLTISSLQPEDFATYYCLGLYYYLTPDPIYGFGGGTKVEIKGGGGSGGGGSGGGGSGGGGSEVQLVESGGGLVQPGGSLRLSCTVSGLSLSKNAIAWVRQAPGKGLEWVGIIYAGGATTYASWAKGRFTISRDNSKNTLYLQMNSLRAEDTAVYYCAREYAGDSYYTGYTQLDLWGQGTLVTVSSGPPPPHHHHHH | 0.109 | 0.0001 | 918000 | 0.043 |  | 0.109 | 0.0001 | 918000 | 
28D2-C Aha (scFv, azidohomoalanine (Aha) in place of the single Met, at the C terminus) scFv: MAHHHHHHPPPPAAADIQLTQSPSFLSASVGDRVTITCQASEDLFSSLAWYQQKPGKAPKLLIYSASTLASGVPSRFSGSGSGTDFTLTISSLQPEDFATYYCLGLYYYLTPDPIYGFGGGTKVEIKGGGGSGGGGSGGGGSGGGGSEVQLVESGGGLVQPGGSLRLSCTVSGLSLSKNAIAWVRQAPGKGLEWVGIIYAGGATTYASWAKGRFTISRDNSKNTLYLQLNSLRAEDTAVYYCAREYAGDSYYTGYTQLDLWGQGTLVTVSSGM |  |  |  |  |  | 0.052 | 7.6e-05 | 1.45e+06 | Kd (3×FLAG-IL-6 [6]): 0.0674 nM; koff (3×FLAG-IL-6 [6]): 7.1e-05 s⁻¹; kon (3×FLAG-IL-6 [6]): 1.05e+06 M⁻¹ s⁻¹
